Measured values taken from patent US9677053B2, “Laccases for bio-bleaching” (BASF ENZYMES LLC, priority 2006, dated 2017).

B1: BD22865: laccase from Fusarium verticillioides, SEQ ID NO: 4, expressed in Aspergillus niger, tested as culture supernatant (protein)
chain: MALIERVWHACVSIVAWLTMWPTSPSTSYQHPLRPNHPHTHIEDPSPGFPIFHPPPGDHEFLCEYPEMTGFVQCSIPENRECWLRHPDGREFNIHTNYENFAPKGIMRHYTLNITESWYNADGQNFTEAKLFNGEYPGPWLEACWGDTFNITVINSMKRNGTSIHWHGIRQNQTMDMDGVNGITQCPIAPGDSFSYIFNTTQYGTSWYHSHYSVQYADGLQGPITIHGPQSAPYDATKRPLLMTDWSHESAFRLLFPGSQFSNKTILLNGAGNVSHYGYTPTLPIPDNYELYFNKTPTDKPTRPKRYLLRLINTSFDSTLVFSIDNHWLQIVTSDFVPIEPYFNTSVLIGIGQRYNVIVEANPLGGDVNEIPDDGNFWIRTWVADACGIAPGGEGYEKTGILRYNHSDKALPSSQPWVNISKACSDETYTSLRPKIPWYIGPAANAQNGERFNVTFDPNAKNTPEFQEEYPVATFGLQRPGQNFRPLQINYSDPVMFHLDEPRDTYPPKWVVIPEDYTEKEWVYFVLTIEGISARTGAHPIHLHGHDFALLQQEENQTYDPSRLNLKLDNPPRRDVVLLPRNGFVVIAFKADNPGIWLMHCHIARHASEGLAMQVLERQGDSNKLFPVGSPNMIEAERVCKVWETWMDGEKDFFEGDSGI
modifications: Fusarium verticillioides
B2: BD22449: laccase from Cochiobolus heterostrophus, SEQ ID NO: 2, expressed in Aspergillus niger, tested as culture supernatant (protein, listed as Cochliobolus heterostrophus)
chain: MVSSISRVVTALGLLLPTVTSSVVPHKSLAPRTPEVPWKNTGLFSGHSKRQGYETACNHGPESRGCWIDDFNIDTDMDVEWPDTGKTVKYHLTITNTTGAPDGFERPMFLINGQYPGPTITADWGDVLEITVTNGLENNGTGIHWHGLRQLGTNEQDGVNGITECPIAPGDSKLYRFKATQYGTTWYHSHYSVQYGDGIVGPLIIKGPSTANYDIDLGAFPMTDWFHATTFTVNAAAVHANGPPTADNVLVNGSMTSSFGGKYAETILTPGKSHLLRLMNVGINNYLHVGLDGHQFQVISADFTPIEPFYTDSLVLAVGQRYEVIINATEAVGNYWLRVGTGGNCDGPNANAANIRSIFRYAGAPTEDPDTTGSLPSGCYDEDVVPYAKTTVPQEMPEQLSVGFNPNWTSDVTQNQGLVQWLVNGNPMAVDLEVPTLQSVLDGNVTYGNNRHVFAVDEKHQWQYWVIQQNSSNPPLPHPIHLHGHDFYVLAQVENAVWNGDISTLKTDNPIRRDTADLPAGGYLVLAFESDNPGAWLMHCHIPFHVAAGLGVQFLERESEIKAQDGYAEMHRTCANWQSWRYKYHPNGILFPGDSGLRRRN

Tests used:
[1] = mediator ability to delignify pulp
[2] = delignification of wood pulp with laccase and mediator, handsheet brightness; conditions: with Mediator 71 (50 mg per 1 gram softwood pulp), borate buffer pH 8, 22° C., then NaOH/H2O2 extraction at 75° C.
Protocol: Laccases BD22449 and BD22865, identified and characterized in Examples 1-5 above were assayed for wood pulp delignification with Mediator 71. Briefly, 1 gram of softwood pulp was treated with 3 mL of BD22449 or BD22865 culture supernatant isolated as described in Example 2 with 50 mg of Mediator 71 at 5% consistency in borate buffer pH 8 at 22° C. Laccase/mediator treatment was followed by extraction stage with 2.5% NaOH, 2% H2O2 at 75° C. Handsheets were made out of the treated pulp and brightness increase due to the laccase/mediator treatment was measured using Brightmeter Micro S-5 (Technidyne Corp. New Albany, Ind., USA). Brightness increase obtained with BD22449 and BD22865 with Mediator 71 was −30% (data not shown).

[3] = pHopt for oxidation of Mediator 71; assay type: biochemical; conditions: 1 mM Mediator 71, pH 5-10, room temperature, 20 min
Protocol: Next, the pHopt for the catalysis of the oxidation of Mediator 71 was determined for each laccase. […] of BD22449 or BD22865 culture supernatant isolated as described in Example 2 was incubated with […] Mediator 71 dissolved in Britton-Robinson Buffer to a final concentration of 1 mM at pH 5, 6, 7, 8, 9, or 10. The consumption of oxygen over 20 min at room temperature was determined in an OXYTHERM™ oxygen measurement instrument over time as described above. […] By contrast, the Trametes laccase had no activity on Mediator 71 at pH 7 or above.

[4] = oxidation of Mediator 71 at pH 8, oxygen electrode; assay type: biochemical; conditions: for specific activity, oxidation of Mediator 71: 1 mM Mediator 71, pH 8, room temperature, laccase preparation, not purified protein
Protocol: BD22449 (SEQ ID NO:2), BD22865 (SEQ ID NO:4) and Trametes versicolor laccase (used as a control) were assayed for their ability to oxidize Mediator 71 at pH 8 using oxygen electrode. Briefly, 50 μL of BD22449 or BD22865 culture supernatant isolated as described in Example 2 was incubated with 950 μL Mediator 71 dissolved in Britton-Robinson Buffer to a final concentration of 1 mM at pH 8. The consumption of oxygen was measured at room temperature in an OXYTHERM™ oxygen measurement instrument over time as described above.

[5] = violuric acid oxidation, oxygen consumption; assay type: biochemical; conditions: 1 mM violuric acid, pH 8, 22° C.
Protocol: (§1) The ability of BD22865 (SEQ ID NO: 4) to oxidize mediators with higher redox potentials such as violuric acid and 1-hydroxybenzotriazole (HBT) at pH 8 at room temperature was also tested. Briefly, 50 μL of BD22865 culture supernatant isolated as described in Example 2 was incubated with 950 μL violuric acid (1 mM in Britton-Robinson Buffer at pH 8) or HBT (1 mM in Britton-Robinson Buffer) at pH 8 at 22° C. in an OXYTHERM™ oxygen measurement instrument. Oxygen consumption was measured as described above. SEQ ID NO:4 (BD22865) was able to oxidize both violuric acid and HBT with oxygen consumption rates of 150 nmol/min/mg and 100 nmol/min/mg, respectively under the conditions described herein.

[6] = TEMPO oxidation, oxygen consumption (OXYTHERM); assay type: biochemical; conditions: 1 mM TEMPO, pH 8, 22° C., culture supernatant
Protocol: Briefly, 50 μL of test culture supernatants isolated as described in Example 2 was incubated with 950 uL TEMPO (1 mM in Britton-Robinson Buffer at pH 8) at 22° C. in an OXYTHERM™ oxygen measurement instrument (Hansatech, England). Oxygen consumption was measured over time according to the manufacturer's instructions.

[7] = thermotolerance, residual activity on ABTS; assay type: biochemical; conditions: 1 hour
Protocol: Laccases BD22449 and BD22865, identified and characterized in Examples 1-5 above were assayed for thermotolerance. Briefly, each laccases was tested at 50° C., 60° C. and 70° C. for 0-60 minutes wherein the residual activity on ABTS was measured. Supernatants from the Aspergillus cultures expressing BD22449 (SEQ ID NO:2) and BD22865 (SEQ ID NO:4) were isolated as described in Example 2. Supernatants were incubated at 50° C., 60° C. or 70° C. for 1 min, 5 min, 10 min, 30 min, and 60 min. For each time point, the oxidation of 2, 2′-azino-bis(3-ethylbenzthiazoline-6-sulfonic acid) (ABTS) by the laccase was measured using an OXYTHERM™ oxygen measurement instrument.

[8] = HBT oxidation, oxygen consumption; assay type: biochemical; conditions: 1 mM HBT, pH 8, 22° C.
Protocol: as §1

Row | Molecule | ability to delignify pulp [1] | efficiency among mediators ([1]; pH 5 and pH 8) | brightness increase of handsheets [2] | pH of optimum oxidation of Mediator 71 [3] | specific activity, oxidation of Mediator 71 [4] | specific activity on Mediator 71 compared to BD22449 ([4]; pH 8) | violuric acid oxidation, oxygen consumption rate [5] | TEMPO oxidation, oxygen consumption rate [6] | activity remaining after an hour at 60° C. [7] | HBT oxidation, oxygen consumption rate [8]
1 | CNC(=O)N(O)c1cccc(C(F)(F)F)c1 [Mediator 71, 3-(3′-Trifluoromethylphenyl)-3-hydroxy-1-methylurea] | capable of delignifying pulp | most efficient |  |  |  |  |  |  |  | 
2 | B1 |  |  | −30% | 8 | 1350 nmol/min/mg | about twice the specific activity | 150 nmol/min/mg | 250 nmol/min/mg | about 40% | 100 nmol/min/mg
3 | B2 |  |  | −30% | 8 | 677 nmol/min/mg |  |  | did not show TEMPO oxidation | approximately 100% | 
